Laboratory results from the supplement of paper PMC12636428.

What follows are sequences tested on Saccharomyces cerevisiae (assay: transcriptional activation domain activity (GFP:mCherry ratio, weighted mean of sorted bins, harmonized to initial dataset scale) (arbitrary fluorescence ratio units); higher = stronger transcriptional activation). Conditions: beta-estradiol 1 µM; induction time 4 h.
Summary of the method: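 Sorting into 8 bins by GFP:mCherry ratio followed a 4-hour hold at 30 °C after cultures were diluted 1:5 into SC with 1 uM beta-estradiol. The yeast diploids carried a GFP reporter and had barcoded protein tiles, fused to an estradiol-inducible synthetic transcription factor, integrated at URA3. Barcodes were then sequenced, and tiles with under 50 reads were removed. Activation activity is the read-weighted mean of bin median fluorescence, averaged across barcodes and linearly mapped onto the initial dataset scale.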
With “GAAHVPSGLSEEKELEQEKKKADRRKGMREKAKEREAKRPVEVAAPEPVAAAP” the “transcriptional activation domain activity” value was 23700.
In the case of “AVLWNPCICFKSPLVFRFCLSVLLAYLSLPFIPFVFLYYCFLFFVLWFIHSSY”, the “transcriptional activation domain activity” value is reported as 31700.
With “RELKRMVQEAIRDIREKKSTLTVQHLKRLLFRVAALIICTPKCDHDLLHYLVI” the “transcriptional activation domain activity” value was 61800.
With “IRYLDHTQLLGEPLLKRTFMGGHIFIPTLIDTALCQSYFSSHILDILRHLTFS” the “transcriptional activation domain activity” value was 63300.
“LTVLGWLSTRKNMSFKSTPSNIRQSLKYSHIPLCLFYSSFTKFFLLLLLSIWD” was tested, and the “transcriptional activation domain activity” value was 42100.
“VYRRELDQNKGGLILIVRRTGNEVHCGVYITFGFMKQWKLYVKSLISITGQWH” was tested, and the “transcriptional activation domain activity” value was 58500.
In the case of “RCANARIVWGARVVGVGGQGEGEAKAWVDVEMAGEEGAKRVERREADFVVGCD”, the “transcriptional activation domain activity” value is reported as 37600.
With “VDNLLLPLAIHHRFLSYCLYIIGFVYFVYSLEKGHYKFQFTQFCITHMTLFLV” the “transcriptional activation domain activity” value was 50900.
With “ANVSATAAPIVAVKRGRGRPRKDPSETQAAKKAAAAAVAPDGAKRGRGRPRLV” the “transcriptional activation domain activity” value was 45200.
For “PAPAPMGRRTFAVDVDESAHSLAKKVKAARVRGYNYIIVVGERDAERGTAAVQ”, the “transcriptional activation domain activity” value was 44800.
“FDLDDQYLANVVAEDRDASVLVQMSIIVQEGEHSHKSEQEPHISLLVLRRKRL” was tested, and the “transcriptional activation domain activity” value was 40200.
For “PFSNFFSNLFLYLFFDLFSNFFFIFSLPFILFHIISSIFNLNFNLLLLLIHLF”, the “transcriptional activation domain activity” value was 65800.
With “ILLMLATGQWRLLIDALVSMSDIEVQFFLRQLALCKLVNWKASIVNGYPSPVE” the “transcriptional activation domain activity” value was 52400.
In the case of “PTASTIYEEAESQSSYLDDMFRTSQGGRPVTQNSISSIGQGPLRSSYSMAYDS”, the “transcriptional activation domain activity” value is reported as 51300.
“MATPSTGAPPPKQIRFVNNQGQPPSKRRRVNAACLTCRKRKTRCDGEKPTCST” was tested, and the “transcriptional activation domain activity” value was 20200.
“VLGQISTVLIQYLFNPAYDLLSYCFNWYLDQCIVYLLLSIILSAPTIGAFVYV” was tested, and the “transcriptional activation domain activity” value was 46400.
In the case of “MLSLRQCYLVLCTLLIITGVGLASTIFIPVNPFYQLLLMENVAFPWIHFILFC”, the “transcriptional activation domain activity” value is reported as 49900.
With “KLRGYGFVCQMLQLPIVVLQRTKWVRGRETLNNVCFWASMILGLSLVRCLFPL” the “transcriptional activation domain activity” value was 50200.
For “GEDSTRSAKKPTNKRKKASTAGDEGRETKARKTAKGRAGTRVRKGRGAKTSSS”, the “transcriptional activation domain activity” value was 20500.
“DGDLDEAVYKGFEYKHLGNLAYIGNAAVFDLNGWSIGGGLIFVYLWRSVYFAQ” was tested, and the “transcriptional activation domain activity” value was 67800.
For “CFYLTTRFWDYKRKSYHYFLFGLCYFVNIMDLFYIWFFRDNVYYFIMCWCLTL”, the “transcriptional activation domain activity” value was 57200.
For “ALRRRTTDDGRLPREDLVHSEISVAVVSSPLSFASRFSPTPAVAVLVTALPVV”, the “transcriptional activation domain activity” value was 80600.
With “LGSIWKPLRNDLLFGTCFFLTRILYHNIMIFTFYYHLDFMFPVYTLLFILPLH” the “transcriptional activation domain activity” value was 61100.
With “TPSTCLSFLPFFPLLLPLFFSFPLSLIFFLCNFSFQFFFSSCFLSFYLFVVSF” the “transcriptional activation domain activity” value was 66100.
“MAPTTPTNSNGETPVKRGRGRPPKPEHEKKLKPAPSGRGRGRPKGSGVKKTGG” was tested, and the “transcriptional activation domain activity” value was 39100.
With “LIYNVCTFSLFWIVYRYNLLYVNNFRFDTSGLLFPRALDQLFTGIYVMAVCLI” the “transcriptional activation domain activity” value was 89400.
“MKRSAAALVSYPSSDEETSEAQAKSEPIKKKKKLPQLSSSLVVPVPVDNPALH” was tested, and the “transcriptional activation domain activity” value was 41300.
With “HCCRLLFLLFLFLFFFLLLFICFFLRLLRLLFPHRNTNLTRPIADPIIPIIPP” the “transcriptional activation domain activity” value was 46900.
For “KIHLVNIGQVLVLLLHRFLYGIIPLFEITTCAYFPFLVSLWHIQYILFYAVMF”, the “transcriptional activation domain activity” value was 84900.
In the case of “MGLSDWPRVLSWHASISLVYLPFWVVVSLVWRYHIWTLSSVVLIIFIHIIFGL”, the “transcriptional activation domain activity” value is reported as 31700.
For “QCIFVLLVLLMRRHLAKMHLCLKQEIDWRELDDDRDTVTWVVAAVWQRFIDLK”, the “transcriptional activation domain activity” value was 61000.
In the case of “EAAHVNGLGIADLDVLLGLNGRSSDVDMTTTLPSLKPPLQNGEIKADSIDNLD”, the “transcriptional activation domain activity” value is reported as 53300.
With “VVNVLLSVFNGYDTGKSGIRCNPLPNSFIPLIMTAMLLSMLTFLLVTTIACYV” the “transcriptional activation domain activity” value was 38300.
In the case of “SKAGLILVIRRQGNEIICGAYRNLGFKMLWKLYVKSLFDVMGQWHEVYATSKP”, the “transcriptional activation domain activity” value is reported as 64000.
“MISPIFPRNLIIHNITFSMLFSFFSFLFYTLYALFNFPVPFFLSSILTPLNIF” was tested, and the “transcriptional activation domain activity” value was 71200.
“MCVLHHLSHTLCFALFCYVIEAFRFTSYLLLLPFWRFYVLVVIPLFIHISYVF” was tested, and the “transcriptional activation domain activity” value was 52500.
For “EHFAGNNHVNRVVNFVQSCFTFYAPKMCKYYTEILQALFSQPTWWMVCCCGFW”, the “transcriptional activation domain activity” value was 46200.
For “MATVISGVCFFFFFFFFCFLLCLVMAFLLLFSFLFLCDLLLRLLLLSPSFDSL”, the “transcriptional activation domain activity” value was 31200.
In the case of “FFGSLMGGALARPQDHWPELFAHPFWTTHPYFLPSASSDCVLLLIIFISLFFL”, the “transcriptional activation domain activity” value is reported as 77800.
With “HAVTYWMCLELTIHLFYTFNRRSTLYFWSILVSICSIISMTILLELIIFVYPL” the “transcriptional activation domain activity” value was 56200.
With “HLRNDTRLIPGIKYLQMVLGRVRYCREIIAILARNGHRLPKGMLSTLVRLWLL” the “transcriptional activation domain activity” value was 34800.
